According to patent US20120231006A1 (Amgen, published 2012):

Columns and labels:
[1] = biological target: T1, hOrai1-mOrai1 ECL2 chimeric protein (human/mouse chimera, UniProt Q96D31 1-301); assay: FACS, 293EBNA; set-up: concentration or dose not given beside the values
T1 construct: human Orai1 with mouse ECL2; also called Ch
Description: (§1) FIG. 16A-D illustrates the results of FACS analysis showing binding to the indicated mOrai1-hOrai1 ECL2 chimeric mutants expressed on the surface of HEK-293-EBNA cells. Transfected cells were stained first with recombinant monoclonal antibodies then counter-stained with a secondary phycoerythrin-labeled goat (“Gt”) anti-human (“Hu”) IgG F(ab′)₂ antibody fragment and visualized using FACS. In FIG. 16B and FIG. 16D, The values of Relative Fluorescence Intensity as Percent of Control (RFI-POC) are calculated from the relative fluorescence intensity geometric mean (Geo Mean). The geometric mean is an average calculated by multiplying a series of numbers and taking the nth root where n is the number of numbers in the series. It is a statistical average of a set of transformed numbers often used to represent a central tendency in a highly variable data set that minimizes the effects of extreme values.
(§2) Table 11A and Table 11B feature a schematic representation of the POC data from FIG. 16B and FIG. 16D, respectively, where the binding results are recorded as (+++) denoting binding POC from 40% to 100%, (++) for POC of 5% to less than 40%, (+) for POC from 1% to less than 5% and (−) as lack of binding with POC less than 1%.

[2] = biological target: T2, mOrai1-hOrai1 ECL2 (…) protein (human/mouse chimera, UniProt Q8BWG9 1-304 (mouse entry)); assay: FACS, 293EBNA; set-up: concentration or dose not given beside the values
T2 construct: also called Ch
Description: as §1, §2
T2 sequence (Q8BWG9 other isoform, or with tags, fused parts or gaps): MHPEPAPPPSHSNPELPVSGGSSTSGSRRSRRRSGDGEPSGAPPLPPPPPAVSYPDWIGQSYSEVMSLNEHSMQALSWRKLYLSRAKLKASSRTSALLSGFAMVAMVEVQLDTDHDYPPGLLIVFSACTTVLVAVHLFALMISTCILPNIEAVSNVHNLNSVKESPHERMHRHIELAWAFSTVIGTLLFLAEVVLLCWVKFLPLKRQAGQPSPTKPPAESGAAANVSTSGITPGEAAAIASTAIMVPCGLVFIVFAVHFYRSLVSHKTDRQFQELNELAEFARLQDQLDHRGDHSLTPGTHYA

[3] = biological target: T3, mOrai1-hOrai1 ECL2 (SPTKPPAE) protein (human/mouse chimera, UniProt Q8BWG9 1-304 (mouse entry)); assay: FACS, 293EBNA; set-up: concentration or dose not given beside the values
T3 construct: also called Ch
T3 sequence (Q8BWG9 other isoform, or with tags, fused parts or gaps): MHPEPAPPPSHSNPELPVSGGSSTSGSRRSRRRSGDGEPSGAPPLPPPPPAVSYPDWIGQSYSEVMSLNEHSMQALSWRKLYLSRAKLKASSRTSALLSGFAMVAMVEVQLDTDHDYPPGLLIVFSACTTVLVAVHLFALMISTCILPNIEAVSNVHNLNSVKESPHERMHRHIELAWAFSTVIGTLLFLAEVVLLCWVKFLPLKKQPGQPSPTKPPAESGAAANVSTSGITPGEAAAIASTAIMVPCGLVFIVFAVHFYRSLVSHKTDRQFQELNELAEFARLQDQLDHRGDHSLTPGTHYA
Description: as §1, §2

[4] = biological target: T4, mOrai1-hOrai1 ECL2 (KPPAE) protein (human/mouse chimera, UniProt Q8BWG9 1-304 (mouse entry)); assay: FACS, 293EBNA; set-up: concentration or dose not given beside the values
T4 construct: also called Ch
T4 sequence (Q8BWG9 other isoform, or with tags, fused parts or gaps): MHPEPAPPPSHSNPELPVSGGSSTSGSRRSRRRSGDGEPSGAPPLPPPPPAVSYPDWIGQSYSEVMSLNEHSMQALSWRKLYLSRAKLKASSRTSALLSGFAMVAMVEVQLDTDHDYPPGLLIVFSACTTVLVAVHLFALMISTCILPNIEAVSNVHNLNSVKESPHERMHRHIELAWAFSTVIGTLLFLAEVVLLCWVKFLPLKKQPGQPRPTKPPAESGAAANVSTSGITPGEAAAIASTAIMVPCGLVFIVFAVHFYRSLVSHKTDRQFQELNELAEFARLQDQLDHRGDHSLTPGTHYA
Description: as §1, §2

[5] = biological target: T5, mOrai1-hOrai1 ECL2 (…) protein (human/mouse chimera, UniProt Q8BWG9 1-304 (mouse entry)); assay: FACS, 293EBNA; set-up: concentration or dose not given beside the values; remark: listed apart in the source
T5 construct: also called Ch
Description: as §1, §2
T5 sequence (Q8BWG9 other isoform, or with tags, fused parts or gaps): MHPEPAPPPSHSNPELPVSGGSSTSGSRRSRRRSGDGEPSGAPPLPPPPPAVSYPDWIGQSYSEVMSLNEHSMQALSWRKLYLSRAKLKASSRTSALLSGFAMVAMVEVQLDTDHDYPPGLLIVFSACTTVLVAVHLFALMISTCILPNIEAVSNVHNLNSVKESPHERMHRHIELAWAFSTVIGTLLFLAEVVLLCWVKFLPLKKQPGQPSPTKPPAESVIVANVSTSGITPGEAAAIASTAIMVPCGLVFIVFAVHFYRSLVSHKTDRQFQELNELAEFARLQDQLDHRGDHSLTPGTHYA

[6] = biological target: T6, mOrai1-hOrai1 ECL2 (…) protein (human/mouse chimera, UniProt Q8BWG9 1-304 (mouse entry)); assay: FACS, 293EBNA; set-up: concentration or dose not given beside the values; remark: listed apart in the source
T6 construct: also called Ch
Description: as §1, §2
T6 sequence (Q8BWG9 other isoform, or with tags, fused parts or gaps): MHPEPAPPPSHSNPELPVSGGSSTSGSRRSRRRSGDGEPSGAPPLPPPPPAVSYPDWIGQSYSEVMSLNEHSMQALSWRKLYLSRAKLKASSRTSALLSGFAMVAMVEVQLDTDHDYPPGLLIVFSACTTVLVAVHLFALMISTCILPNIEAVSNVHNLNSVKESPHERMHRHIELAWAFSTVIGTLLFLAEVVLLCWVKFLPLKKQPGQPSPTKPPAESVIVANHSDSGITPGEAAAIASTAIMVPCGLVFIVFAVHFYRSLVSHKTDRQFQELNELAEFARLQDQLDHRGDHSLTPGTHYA

[7] = biological target: T7, mOrai1-hOrai1 ECL2 chimeric protein (human/mouse chimera, UniProt Q8BWG9 1-304 (mouse entry)); assay: FACS, 293EBNA, RFI-POC grade; set-up: concentration or dose not given beside the values
T7 construct: mouse Orai1 with human ECL2; also called Ch
T7 sequence (Q8BWG9 other isoform, or with tags, fused parts or gaps mutant): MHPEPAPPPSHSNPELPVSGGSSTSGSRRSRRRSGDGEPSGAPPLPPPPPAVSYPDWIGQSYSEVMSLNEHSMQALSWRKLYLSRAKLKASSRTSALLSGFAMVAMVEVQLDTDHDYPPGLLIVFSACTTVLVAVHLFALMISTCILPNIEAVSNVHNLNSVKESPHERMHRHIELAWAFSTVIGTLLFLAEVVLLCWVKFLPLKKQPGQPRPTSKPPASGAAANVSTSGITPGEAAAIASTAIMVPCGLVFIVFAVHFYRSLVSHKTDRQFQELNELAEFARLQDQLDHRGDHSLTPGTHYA

[8] = biological target: T8, hOrai1-mOrai1 ECL2 (…) protein (human/mouse chimera, UniProt Q96D31 1-301); assay: FACS, 293EBNA, RFI-POC grade; set-up: concentration or dose not given beside the values
T8 construct: also called Ch
T8 sequence (Q96D31 other isoform, or with tags, fused parts or gaps): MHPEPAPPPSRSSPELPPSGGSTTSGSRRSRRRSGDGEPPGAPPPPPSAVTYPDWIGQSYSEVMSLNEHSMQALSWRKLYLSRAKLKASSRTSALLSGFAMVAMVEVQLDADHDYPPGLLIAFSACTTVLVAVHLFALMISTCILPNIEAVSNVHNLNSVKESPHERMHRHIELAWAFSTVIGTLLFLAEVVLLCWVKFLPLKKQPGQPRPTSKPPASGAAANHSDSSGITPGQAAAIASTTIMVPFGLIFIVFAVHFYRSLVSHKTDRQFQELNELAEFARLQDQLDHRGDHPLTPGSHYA

[9] = biological target: T9, hOrai1-mOrai1 ECL2 (…) protein (human/mouse chimera, UniProt Q96D31 1-301); assay: FACS, 293EBNA, RFI-POC grade; set-up: concentration or dose not given beside the values; remark: listed apart in the source
T9 construct: also called Ch
T9 sequence (Q96D31 other isoform, or with tags, fused parts or gaps): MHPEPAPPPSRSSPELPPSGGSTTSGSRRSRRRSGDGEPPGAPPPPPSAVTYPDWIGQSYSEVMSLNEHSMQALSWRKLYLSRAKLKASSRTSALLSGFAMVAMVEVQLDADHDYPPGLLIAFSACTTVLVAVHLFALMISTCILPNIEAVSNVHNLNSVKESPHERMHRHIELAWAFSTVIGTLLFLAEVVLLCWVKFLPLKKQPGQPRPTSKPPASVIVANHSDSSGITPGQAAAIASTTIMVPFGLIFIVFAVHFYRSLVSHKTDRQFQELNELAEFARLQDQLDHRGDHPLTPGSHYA

[10] = biological target: T10, hOrai1-mOrai1 ECL2 (…) protein (human/mouse chimera, UniProt Q96D31 1-301); assay: FACS, 293EBNA, RFI-POC grade; set-up: concentration or dose not given beside the values; remark: listed apart in the source
T10 construct: also called Ch
T10 sequence (Q96D31 other isoform, or with tags, fused parts or gaps): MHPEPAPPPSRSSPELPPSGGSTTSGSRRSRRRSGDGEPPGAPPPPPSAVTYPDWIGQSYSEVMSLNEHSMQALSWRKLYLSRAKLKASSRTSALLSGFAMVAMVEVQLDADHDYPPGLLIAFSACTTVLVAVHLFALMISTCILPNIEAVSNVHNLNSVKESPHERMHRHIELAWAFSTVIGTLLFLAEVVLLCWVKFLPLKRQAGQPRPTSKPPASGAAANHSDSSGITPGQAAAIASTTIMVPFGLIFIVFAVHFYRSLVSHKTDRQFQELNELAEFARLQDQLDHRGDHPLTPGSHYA

[11] = biological target: T11, hOrai1-mOrai1 ECL2 (RPTSKPPA) protein (human/mouse chimera, UniProt Q96D31 1-301); assay: FACS, 293EBNA, RFI-POC grade; set-up: concentration or dose not given beside the values
T11 construct: also called Ch
T11 sequence (Q96D31 other isoform, or with tags, fused parts or gaps): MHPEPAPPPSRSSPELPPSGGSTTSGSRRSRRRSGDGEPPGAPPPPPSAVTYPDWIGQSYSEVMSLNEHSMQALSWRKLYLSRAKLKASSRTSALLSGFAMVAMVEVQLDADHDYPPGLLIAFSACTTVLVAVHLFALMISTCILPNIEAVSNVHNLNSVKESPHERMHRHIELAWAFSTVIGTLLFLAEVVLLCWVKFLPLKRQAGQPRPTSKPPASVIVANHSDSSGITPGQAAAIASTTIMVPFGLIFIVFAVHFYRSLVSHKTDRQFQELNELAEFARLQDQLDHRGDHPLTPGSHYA

[12] = biological target: T12, hOrai1-mOrai1 ECL2 (SKPPA) protein (human/mouse chimera, UniProt Q96D31 1-301); assay: FACS, 293EBNA, RFI-POC grade; set-up: concentration or dose not given beside the values
T12 construct: also called Ch
T12 sequence (Q96D31 other isoform, or with tags, fused parts or gaps): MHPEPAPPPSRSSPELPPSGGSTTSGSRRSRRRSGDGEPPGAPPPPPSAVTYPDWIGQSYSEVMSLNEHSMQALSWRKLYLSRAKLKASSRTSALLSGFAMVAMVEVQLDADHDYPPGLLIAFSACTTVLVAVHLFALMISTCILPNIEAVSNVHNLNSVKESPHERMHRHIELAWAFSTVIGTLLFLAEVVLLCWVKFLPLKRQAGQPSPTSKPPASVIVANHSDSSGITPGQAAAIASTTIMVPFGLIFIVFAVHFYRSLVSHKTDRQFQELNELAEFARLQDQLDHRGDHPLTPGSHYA

[13] = biological target: T7, mOrai1-hOrai1 ECL2 chimeric protein; assay: FACS, 293EBNA, RFI-POC grade; set-up: concentration or dose not given beside the values; remark: listed apart in the source
Description: as §1, §2

[14] = biological target: T13, mOrai1-hOrai1 ECL2 (HSD) protein (human/mouse chimera, UniProt Q8BWG9 1-304 (mouse entry)); assay: FACS, 293EBNA, RFI-POC grade; set-up: concentration or dose not given beside the values
T13 construct: also called Ch
T13 sequence (Q8BWG9 other isoform, or with tags, fused parts or gaps): as the sequence (Q8BWG9 other isoform, or with tags, fused parts or gaps mutant) above, with V226H, T228D counted along it
Description: as §1, §2

[15] = biological target: T2, mOrai1-hOrai1 ECL2 (…) protein; assay: flow cytometry on HEK-293 cells transfected with the chimera (loss of binding experiment)
[16] = biological target: T3, mOrai1-hOrai1 ECL2 (SPTKPPAE) protein; assay: as above
[17] = biological target: T4, mOrai1-hOrai1 ECL2 (KPPAE) protein; assay: as above
[18] = biological target: T5, mOrai1-hOrai1 ECL2 (…) protein; assay: as above; remark: listed apart in the source
[19] = biological target: T6, mOrai1-hOrai1 ECL2 (…) protein; assay: as above; remark: listed apart in the source

T1 sequence (Q96D31 other isoform, or with tags, fused parts or gaps mutant): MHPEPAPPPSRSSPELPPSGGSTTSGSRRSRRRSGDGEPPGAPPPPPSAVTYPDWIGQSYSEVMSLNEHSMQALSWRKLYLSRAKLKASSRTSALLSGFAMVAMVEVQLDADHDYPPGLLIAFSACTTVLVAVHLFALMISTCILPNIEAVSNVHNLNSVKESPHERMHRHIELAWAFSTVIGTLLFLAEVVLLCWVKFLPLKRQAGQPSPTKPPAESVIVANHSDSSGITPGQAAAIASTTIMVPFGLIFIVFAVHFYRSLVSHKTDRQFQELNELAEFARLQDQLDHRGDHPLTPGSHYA

POC (percent of control, FACS Geo Mean relative to Ch. 1) [1] | POC (percent of control, FACS Geo Mean relative to Ch. 1) [2] | POC (percent of control, FACS Geo Mean relative to Ch. 1) [3] | POC (percent of control, FACS Geo Mean relative to Ch. 1) [4] | POC (percent of control, FACS Geo Mean relative to Ch. 1) [5] | POC (percent of control, FACS Geo Mean relative to Ch. 1) [6] | binding result [15] | binding result [16] | binding result [17] | binding result [18] | binding result [19] | Binder | further results
< 1% | < 1% | < 1% | < 1% | < 1% | < 1% | no binding | no binding | no binding | no binding | no binding | mAb 2D2.1 (antibody, human IgG2, lambda, V domains shown, fully human IgG2 lambda, Campaign 1; also called mAb 2D.1) VH: QVQLQQWGAGLLKPSETLSLTCAVYGGSFSGYYWSWIRQPPGKGLEWIGEIDHSGRINYNPALKSRLTISVDTSKNQFSLKLSSVTAADTAVYYCARAGSGGYEDWFDPWGQGTLVTVSS VL: QSVLTQPPSVSGAPGQRVTISCTGSSSNIGAGYNVHWYQQFPRTDPKLLIYVYNIRPSGVPDRFSGSRSGTSASLAITGLQTEDEADYYCQSYDSSLSGVVFGGGTKLTVLG | POC (percent of control, FACS Geo Mean relative to binding to Ch. 1) [1]: < 1%; POC (percent of control, FACS Geo Mean relative to binding to Ch. 1) [2]: < 1%; POC (percent of control, FACS Geo Mean relative to binding to Ch. 1) [3]: < 1%; POC (percent of control, FACS Geo Mean relative to binding to Ch. 1) [4]: < 1%; POC (percent of control, FACS Geo Mean relative to binding to Ch. 1) [5]: < 1%; POC (percent of control, FACS Geo Mean relative to binding to Ch. 1) [6]: < 1%; percent of control (POC) of FACS Geo Mean [7]: 40 to 100%; percent of control (POC) of FACS Geo Mean [8]: 40 to 100%; percent of control (POC) of FACS Geo Mean [9]: 40 to 100%; percent of control (POC) of FACS Geo Mean [10]: 40 to 100%; percent of control (POC) of FACS Geo Mean [11]: 40 to 100%; percent of control (POC) of FACS Geo Mean [12]: 5 to 40%; POC (percent of control, FACS Geo Mean relative to binding to Ch. 1) [13]: 40 to 100%; POC (percent of control, FACS Geo Mean relative to binding to Ch. 1) [14]: 40 to 100%
< 1% | < 1% | < 1% | < 1% | < 1% | < 1% | no binding | no binding | no binding | no binding | no binding | mAb 2B7.1 (antibody, human IgG2, V domains shown, fully human, Campaign 1) VH: QVQLQQWGAGLLKPSETLSLTCAVYGGSFSGYYWSWIRQPPGKGLEWIGEIDHSGSTNYNPALKSRLTISVDTSKNQFSLKLSSVTAADTAVYYCARAGSGGYEDWFDPWGQGTLVTVSS VL: QSVLTQPPSVSGAPGQRVTISCTGSSSNIGTGYNVHWYQQFPRTDPKLLIYVYNIRPSGVPDRFSGSRSGTSASLAITGLQTEDEADYYCQSYDSSLSGVVFGGGTKLTVLG | 
< 1% | < 1% | < 1% | < 1% | < 1% | < 1% | no binding | no binding | no binding | no binding | no binding | mAb 2C1.1 (antibody, human IgG2, lambda, V domains shown, fully human IgG2 lambda, Campaign 1; tested hybridoma-purified and recombinant; also called anti-hOrai1 mAb 2C1.1) VH: QVQLQQWGAGLLKPSETLSLTCAVYGGSFSGYYWSWIRQPPGKGLEWIGEIDHSGSTNYNPALKSRLTISVDTSKNQFSLKLSSVTAADTAVYYCARAGSGGYEDWFDPWGQGTLVTVSS VL: QSVLTQPPSVSGAPGQRVTISCTGSSSNIGAGYNVHWYQQFPRTDPKLLIYVYNIRPSGVPDRFSGSRSGTSASLAITGLQTEDEADYYCQSYDSSLSGVVFGGGTKLTVLG | 
